The target of assay [1] is T1, domains 5-7 of CD22 conjugated to green fluorescent protein, expressed in Jurkat cells (human, UniProt P20273 414-687).
T1 construct: also called Jurkat-CD22 (D5-D7)-GFP; not shown: membrane anchor and green fluorescent protein (GFP) fusion
T1 sequence: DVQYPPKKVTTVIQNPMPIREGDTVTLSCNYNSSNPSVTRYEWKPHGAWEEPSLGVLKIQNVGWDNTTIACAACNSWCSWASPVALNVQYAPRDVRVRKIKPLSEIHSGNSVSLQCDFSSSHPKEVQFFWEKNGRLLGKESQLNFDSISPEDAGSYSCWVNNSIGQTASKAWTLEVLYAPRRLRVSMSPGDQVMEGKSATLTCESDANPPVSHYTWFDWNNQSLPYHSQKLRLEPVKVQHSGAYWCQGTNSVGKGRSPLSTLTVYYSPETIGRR
As to the kind of experiment: flow cytometry, phage clone on cells. For orientation: A flow cytometer gives signals particle by particle.

Assay [2] concerns the target T2, full-length human CD22 (human, UniProt P20273 20-847).
T2 construct: CD22 on the cell surface: natural on Raji and NALM-6 cells, introduced in Jurkat cells (full-length) and in K562+CD22 cells; The K562 construct is not described further; also called Jurkat-CD22-full; CD22 on Raji, NALM-6 and K562+CD22 cells
T2 sequence: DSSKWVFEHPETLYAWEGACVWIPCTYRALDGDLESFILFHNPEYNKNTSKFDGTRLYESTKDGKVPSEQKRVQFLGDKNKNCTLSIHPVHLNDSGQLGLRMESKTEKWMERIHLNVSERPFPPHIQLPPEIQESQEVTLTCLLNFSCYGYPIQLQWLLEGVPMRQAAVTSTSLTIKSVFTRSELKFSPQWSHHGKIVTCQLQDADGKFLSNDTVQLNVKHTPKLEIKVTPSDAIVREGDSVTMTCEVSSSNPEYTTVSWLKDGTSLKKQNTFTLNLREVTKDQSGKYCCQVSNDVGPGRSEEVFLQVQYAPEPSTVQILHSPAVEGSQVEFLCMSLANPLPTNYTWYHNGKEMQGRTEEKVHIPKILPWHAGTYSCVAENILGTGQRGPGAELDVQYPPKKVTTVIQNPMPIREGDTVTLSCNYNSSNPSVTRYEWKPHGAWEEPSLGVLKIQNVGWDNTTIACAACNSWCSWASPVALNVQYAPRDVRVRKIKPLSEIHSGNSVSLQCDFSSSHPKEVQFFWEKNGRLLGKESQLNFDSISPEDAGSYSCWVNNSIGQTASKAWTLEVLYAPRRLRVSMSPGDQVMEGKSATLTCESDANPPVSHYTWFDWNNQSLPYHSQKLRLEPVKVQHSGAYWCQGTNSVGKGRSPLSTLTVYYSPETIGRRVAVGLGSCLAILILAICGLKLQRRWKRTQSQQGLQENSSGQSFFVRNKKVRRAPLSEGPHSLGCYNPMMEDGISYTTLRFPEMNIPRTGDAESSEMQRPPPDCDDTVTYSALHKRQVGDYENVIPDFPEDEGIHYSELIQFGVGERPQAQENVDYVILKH
As to the kind of experiment: flow cytometry, phage clone on NALM-6 cells.

In assay [3] the target is T1, domains 5-7 of CD22 conjugated to green …. As to the kind of experiment: flow cytometry, phage clone on Jurkat cells expressing domains 5-7 of CD22-GFP.
For assay [4], the target named is T2, full-length human CD22. As to the kind of experiment: flow cytometry, phage clone on Raji cells and Jurkat cells expressing full-length CD22.

B1: phage clone 2 (anti-CD22 clone 2) (scFv, V domains shown)
VH: QVQLVESGGGLVQPGGSLRLSCAASGFTFSNYAMSWVRQAPGKGLEWVSSISGSGGSTYYADSVKGRFTISRDTSKNTLYLQMNSLRAEDTAVYYCARYGSAAWMDSWGQGTLVTVSS
VL: DIQLTQSPSSLSTSVGDRVTITCQASHDIRNYLNWYQQKPGKAPNLLIYAASNLQTGVPSRFSGRGSGTDFTLTISSLQPEDIATYYCQQYDGLPLTFGQGTRLEIKR
On to B1, for which the binding result (in assay [1]; with full-length human CD22 [2]) was “binds” in each case.

B2: phage clone 1 (anti-CD22 clone 1) (scFv, V domains shown)
VH: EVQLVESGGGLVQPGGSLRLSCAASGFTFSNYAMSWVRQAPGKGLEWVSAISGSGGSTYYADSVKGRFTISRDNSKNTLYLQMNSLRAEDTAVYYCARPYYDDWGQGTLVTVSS
VL: QSVVTQPPSVSAAPGQKVTISCSGSSSNIGNNYVSWYQQLPGTAPKLLIYENNKRPSGIPDRFSGSKSGTSATLGITGLQTGDEADYYCGTWDSSLSAGAVFGGGTKLTVLG
Turning to B2, the binding result (in assay [3]; in the assay with full-length human CD22 [4]) was “binds” in each case.

For the origin of these results see US20210017280A1 (EUREKA THERAPEUTICS, published 2021).
